Measurements reported in patent US20020155575.
Several values for one entry are separate records, joined by “and”; a condition that tells them apart may be missing. Identical values can stand only once.

T1: trypsin inhibitor type IV-0 (Ovo-inhibitor), Sigma T-1886 (UniProt P10184)
T1 sequence: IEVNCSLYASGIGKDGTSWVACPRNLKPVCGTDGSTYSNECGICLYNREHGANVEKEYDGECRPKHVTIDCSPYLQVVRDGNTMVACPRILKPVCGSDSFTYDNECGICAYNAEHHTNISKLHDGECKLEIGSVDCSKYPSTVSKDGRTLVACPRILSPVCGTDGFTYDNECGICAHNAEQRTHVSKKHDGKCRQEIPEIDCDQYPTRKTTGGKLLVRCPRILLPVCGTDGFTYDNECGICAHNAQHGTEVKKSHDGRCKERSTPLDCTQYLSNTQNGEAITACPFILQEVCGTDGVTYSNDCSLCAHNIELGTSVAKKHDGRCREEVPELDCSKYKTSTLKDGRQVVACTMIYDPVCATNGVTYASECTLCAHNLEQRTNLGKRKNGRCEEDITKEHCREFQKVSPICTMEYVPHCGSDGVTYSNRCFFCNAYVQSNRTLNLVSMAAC

T2: trypsin inhibitor type IV-0 (Ovo-inhibitor), Sigma T-1886, P10184
T2 chain: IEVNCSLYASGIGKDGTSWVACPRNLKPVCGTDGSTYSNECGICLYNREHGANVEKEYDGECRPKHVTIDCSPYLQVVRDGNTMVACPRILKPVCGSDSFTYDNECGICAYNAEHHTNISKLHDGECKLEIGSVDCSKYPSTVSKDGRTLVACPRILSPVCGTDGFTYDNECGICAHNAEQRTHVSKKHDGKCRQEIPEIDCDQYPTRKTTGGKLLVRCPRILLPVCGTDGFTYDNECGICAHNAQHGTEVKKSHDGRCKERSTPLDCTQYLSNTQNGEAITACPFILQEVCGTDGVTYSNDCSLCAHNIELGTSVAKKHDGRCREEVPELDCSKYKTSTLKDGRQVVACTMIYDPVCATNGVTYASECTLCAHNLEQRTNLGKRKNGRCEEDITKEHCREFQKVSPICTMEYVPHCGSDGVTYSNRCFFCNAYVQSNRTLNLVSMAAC


Experiments:
[1] = molecular target: T1, trypsin inhibitor type IV-0 (Ovo-inhibitor), Sigma T-1886
[2] = molecular target: T2, trypsin inhibitor type IV-0 …

Molecule	Residual Activity (%) [1]	Residual Activity (%) [2]
subtilisin 309 variant S99SD + S99A + N155ND	10.7% and 7.1%	
subtilisin 309 variant S99SD + S99A + S216SDP	35.0%	
subtilisin 309 variant S99SD + S99A + N155NR	6.5%	
subtilisin 309 variant S99D + S101R + S103A + V104I + G160S + A194P + V199M + V205I + *216aE	25.4%	
subtilisin 309 variant L42LN	69.2%	
subtilisin 309 variant S99D + S101R + S103A + V104I + G160S + A194P + V199M + V205I + *216aD	24.0%	
subtilisin 309 variant L217LP + S99SD + S99A	97.0%	
subtilisin 309 variant S99SD + S99A + N155NA	7.4%	
SAVINASE (subtilisin 309 from B. lentus) (protein) AQSVPWGISRVQAPAAHNRGLTGSGVKVAVLDTGISTHPDLNIRGGASFVPGEPSTQDGNGHGTHVAGTIAALNNSIGVLGVAPSAELYAVKVLGASGSGSVSSIAQGLEWAGNNGMHVANLSLGSPSPSATLEQAVNSATSRGVLVVAASGNSGAGSISYPARYANAMAVGATDQNNNRASFSQYGAGLDIVAPGVNVQSTYPGSTYASLNGTSMATPHVAGAAALVKQKNPSWSNVQIRNHLKNTATSLGSTNLYGSGLVNAEAATR		<5%
